Data from IntAct's records for PubMed 20972448.

Molecular target: xpo1_mouse Xpo1 (UniProt Q6P5F9)
UniProt Q6P5F9, sequence (Q6P5F9 whole entry): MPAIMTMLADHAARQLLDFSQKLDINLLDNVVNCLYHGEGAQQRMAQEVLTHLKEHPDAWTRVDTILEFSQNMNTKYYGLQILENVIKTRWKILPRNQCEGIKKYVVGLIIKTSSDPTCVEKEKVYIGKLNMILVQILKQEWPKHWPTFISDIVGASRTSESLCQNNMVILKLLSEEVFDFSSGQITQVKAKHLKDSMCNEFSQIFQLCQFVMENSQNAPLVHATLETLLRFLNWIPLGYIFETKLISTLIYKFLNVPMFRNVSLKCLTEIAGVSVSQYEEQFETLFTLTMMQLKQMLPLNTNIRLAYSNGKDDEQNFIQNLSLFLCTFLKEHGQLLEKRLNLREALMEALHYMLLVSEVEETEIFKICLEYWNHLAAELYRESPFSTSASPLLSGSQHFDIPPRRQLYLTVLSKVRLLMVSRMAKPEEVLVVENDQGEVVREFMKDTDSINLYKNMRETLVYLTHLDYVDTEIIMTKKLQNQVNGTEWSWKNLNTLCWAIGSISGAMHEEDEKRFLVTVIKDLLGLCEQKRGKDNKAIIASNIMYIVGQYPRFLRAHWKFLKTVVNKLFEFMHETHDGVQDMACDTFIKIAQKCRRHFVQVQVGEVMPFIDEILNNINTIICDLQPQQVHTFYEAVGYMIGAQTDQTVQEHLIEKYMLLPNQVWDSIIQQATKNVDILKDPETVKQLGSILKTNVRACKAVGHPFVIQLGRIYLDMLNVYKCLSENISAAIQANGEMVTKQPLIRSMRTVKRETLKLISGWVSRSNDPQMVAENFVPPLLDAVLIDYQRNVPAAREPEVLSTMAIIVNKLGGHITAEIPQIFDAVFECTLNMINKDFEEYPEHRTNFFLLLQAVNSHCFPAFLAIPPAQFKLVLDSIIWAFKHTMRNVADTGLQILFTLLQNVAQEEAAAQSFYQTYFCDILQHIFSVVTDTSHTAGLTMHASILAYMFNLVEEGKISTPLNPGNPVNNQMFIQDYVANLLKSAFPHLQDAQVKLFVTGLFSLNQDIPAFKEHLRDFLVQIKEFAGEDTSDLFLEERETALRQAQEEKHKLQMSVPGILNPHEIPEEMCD

effect of a mutation on the interaction: increasing interaction
Substance: cAMP-dependent protein kinase inhibitor alpha (Homo sapiens) (from UniProt P61925) S35L
